Test results: publication PMC5715906 (The Journal of General Physiology, 2017)

Target: the molecule itself
Test: crystal structure

B1: GLIC E−2′I + I9′A double mutant (receptor)
chain: QDMVSPPPPIADEPLTVNTGIYLIECYSLDDKAETFKVNAFLSLSWKDRRLAFDPVRSGVRVKTYEPEAIWIPEIRFVNVENARDADVVDISVSPDGTVQYLERFSARVLSPLDFRRYPFDSQTLHIYLIVRSVDTRNIVLAVDLEKVGKNDDVFLTGWDIESFTAVVKPANFALEDRLESKLDYQLRISRQYFSYIPNIILPMLFILFISWTAFWSTSYIANVTLVVSTLAAHIAFNILVETNLPKTPYMTYTGAIIFMIYLFYFVAVIEVTVQHYLKVESQPARAASITRASRIAFPVVFLLANIILAFLFFGF
stoichiometry N: 5
